This is an account of results in the DeepSol protein solubility set.

This series is described as follows: soluble on expression in E. coli; label from the status in PepcDB or PDB records.
On to “MSLIYTLTLNPSVDYKIVLKEFQEESLNYALNNNFFAGGKGINVSTVLKNLGKPSTALGFLGGFTGDYIRFSLDSRGIKNDFIKIKYDTRLNIKMIANGRETEINANSPDISENEFELLKNKLKNLANNSTLVMSGSVPAALGEDAYNEIANSISNDVKLIIDTSGKPLRKILRLNPFLIKPNIYELEDLFNAKFDSTKELIKIGKNLVESGVQNIIISMGSDGAIFIGGKNVAFRAFVPKINFVSTIGAGDSVIAGFVYAFDNGSTLEDSFKFGVAAGTATALKGNLCEFQDVKKMLCQIRVEDIYTSEGHHHHHH”, for which the “soluble on expression in E. coli” value is given as “soluble”.
The same measure for “MNSLILGAARRFVGLHLRVSVNLLQNESFSSYSFSSASAADVSPKGETFKSSSFLDSLRLATKLTDKGNSDSVLDLLRSYGFTDSQISSIIRSDSRVLIDNDATSLGSKLQFLQSRGASSSELTEVVSTVPKILGKREGKSLSRYYDFIKVIIEADKSSKYEKISHSLAQGNKIRNILVLRELGVPQKRLLLLLISKSQPVCGKEKFDASLKKVVEMGFDPTTSTFVHALHMLYQMSDKTIEEKIRVYRSVGFSVDDVWAMFKKWPRSLTHSEKKVANSIETFLGLGFSRDVFMMMFKRFPPCIGYSTEAVKKKTEFLVKEMNWPVKAVASIPQVLGYSLEKRTVPRCNVIKVLMSKGLLESELPPMSSVLTSTSESFLNLYVSKHDDKQLVAELMAIFTGNRVSLTDQKARLEQ”: “soluble”; for “MKPEDFRASATRPFTGEEYLASLRDDREIYIYGDRVKDVTSHPAFRNAAASMARLYDALHDPQSKEKLCWETDTGNGGYTHKFFRYARSADELRQQRDAIAEWSRLTYGWMGRTPDYKAAFGSALGANPGFYGRFEDNAKTWYKRIQEACLYLNHAIVNPPIDRDKPVDQVKDVFISVDEEVDGGIVVSGAKVVATNSALTHYNFVGQGSAQLLGDNTDFALMFIAPMNTPGMKLICRPSYELVAGIAGSPFDYPLSSRFDENDAILVMDKVFIPWENVLIYRDFERCKQWFPQGGFGRLFPMQGCTRLAVKLDFITGALYKALQCTGSLEFRGVQAQVGEVVAWRNLFWSLTDAMYGNASEWHGGAFLPSAEALQAYRVLAPQAYPEIKKTIEQVVASGLIYLPSGVRDLHNPQLDKYLSTYCRGSGGMGHRERIKILKLLWDAIGSEFGGRHELYEINYAGSQDEIRMQALRQAIGSGAMKGMLGMVEQCMGDYDENGWTVPHLHNPDDINVLDRIRQ”: “not soluble”.
The same measure for “MEAEGFPRLFHNFENVPEPKECKKVGSVPSYLTGTMLRNGPGMFTVGEEEYKHWFDGLGFMQRYHFEDGKMFYSARYLESEAYTKTVEAQRIVAGTFGTLSFPDPCKTIFSKYFSEFMNHSEKHDNSNVAFTPVGDSLYACTETPHMYRVDLDTLKTLEAADFSKFVAVHSCTAHQLYDENGDVYNIGSRFGPESAHVFTVTKNPKNQKSENDHSWEHTSKIGEIKASDPLYPTYMHSFGMSENYLVMFESPVRLHLQKYLLSEFVRATYHDCLEWHGDKDVSIFILNKKTGEQLPLTLKMNPFFTFHHANTFEKDGCLVMDYCRIENAGKFDTLLISNMKTGEFQYDAKFLPYLTRVIVPMSVSSSAKPGDNLLKSVPWASGCTSILQDDGSIRLTERRVCETSMEFPRYHWEKINMKEYRYVFGSTVFGRIDGNLAGVVKADLKFGNHLIWNRENPHQICGEPIFVPNPEGIEEDDGILIVPIMSSSEKQVPFVLILDAKTLEETARFEIPEARIPLGFHAFYKPKN”: “not soluble”; for “MSLGDSRTKPMEILLVEDGLVDARVTIHALRRSGLHHRLTLVRSVHEAILFMKRTGIFARAPRLDLLLLDMILPDGTGIDVLEEMSELQPDSSRVTTVVLTACEDASYRTRCDELGVYDYIQKPVSEDEFLRVVRDHKKLMIHLQQAAVSAAAGNHSEGHHHHHH”: “soluble”; for “MATESSSPSSVRKVVVHLRATGGAPILKQSKFKIPGTDKFAKVIDFLRRQLHSDSLFVYVNSAFSPNPDESVIDLYNNFGFDGKLVVNYACSMAWG”: “not soluble”.
The same measure for “MRPVVHVVGGGPGDPELLTVKGARLLGEARFVLYTGSLFPEGALRELAPKAALLDSKGMTLEEIVLALAEEARKGGGVVRLHSGDPGLYGTLLEEKEALEALGVGVEVVPGVTAAFALAARAGLSLTAPGVAQAVAFTRLGVRTPVPEGQDPKSLARKGLTLAVYLSGMHPRRLSRELLEAGLPGDTPVLYGHKVAQPGEEVGLTDLKGLAHLPARDTTVYLVGEALRAKGVRSLLYDPSFKHRYRR”: “soluble”.
Regarding “MNVLKQQITASIAKDIAFRLGAELNDEEADIFADGYNAAMLQNCNVVTSGKPLTITLPDTSSKAFWSSTGKNETFHPETYKRQVKEAIERSCVIAGIGVEVK”, the “soluble on expression in E. coli” value is “not soluble”.
Turning to “MSLEDYILKVEELNYNYSDGTHALKGINMNIKRGEVTAILGGNGVGKSTLFQNFNGILKPSSGRILFDNKPIDYSRKGIMKLRESIGIVFQDPDNQLFSASVYQDVSFGAVNMKLPEDEIRKRVDNALKRTGIEHLKDKPTHCLSFGQKKRVAIAGVLVMEPKVLILDEPTAGLDPMGVSEIMKLLVEMQKELGITIIIATHDIDIVPLYCDNVFVMKEGRVILQGNPKEVFAEKEVIRKVNLRLPRIGHLMEILKEKDGFVFDELDLTIGQARKTINSWKNKIFNEGHHHHHH”, the “soluble on expression in E. coli” value is on record as “soluble”.
The same measure for “MSLEQNPVDLDSLTLVNEDELETSVALDNMARRARNGCNEQLKVLCHRIEYLFESKREVNEHNNPLEPRQLVACFSEGLEKLSLDIKARLIILKLFEREVMAETGYLVSEANKVLIDAGVLPEMKSAPIAPAHKPGSRSLANQGNDNVMPTAGNAGVHSNDQVFGLLQELLVTMRGMQARPGDGASDVASEAPMAVMQNGVPYMNGAPLANAASVHQVNSDDLLGVLNRLQRVERSLGEDEGEERADLKTDLSELLDNEHGEAIHALDQADDDVINLVALLFDFILDDEGLPSDIKALLGRLQIPLLKVAIMDKAFFNNDNHEARLLLNMLARAGSQWDPHLGIQDDLYQRINHAVHRIIDDYEDDASLFSSLLQEFQQFFDSQKTRSDRVEQRVREAEEGKARAEQARREVVTVLDNRMAGRQLPDVVVRLLRQGWQQALYLTWLHEGENSPLWQQQVKVVDAVVWSVLEHRDQDALEKLKTLSPKLLKTLHEGLTKINHDAMETKQLLVKFRDVHHRLLKGLQTERVAVEPELPAQRAQPETAPELPENHFLVKKCSQLAPGQWIEIQDNDEPRRAKLAANIRAGVKIVFTNRRGIKVQEYSAYTLAVALHNGAVKLIDEGALFDRALEAVIGDLRRMQGNEGHHHHHH”: “not soluble”; for “GPGSMFFYQRRLASGLPVRFLSLRAWRSSPENFRKTSAFLKALKAKTPAAGVSAEGFGARPVVVITGGERGIGKEVVHQLLREGVDVILCCPFEAEALRTIARLKARVSNSRVHFVKLDLNDEESVRECAAEVLGMTPRIDVLINNSGLVSPLSHKLNKRGYEVVLSINFLGHVLFTELLLERVKASGPSRIVNVASLMHLDACVEGPCKTALDVMAANCDPTSPHHTRNYSLSKLLLVCYTRDLARHLRGTDTAVATLHPGVVITDIYAFAVIFMRVFFRTVFKFPGEGAEVVLYCALADNIRSGSFYADCAEYNSLLSPLAVDDAHNERLRRVLLRYFALDGSKPTGKSLADVVQSTP”: “not soluble”; for “MGSDKIHHHHHHLSNYINDLRQKVGNAPLILNTATGALFNNAGEVLLQERVDTKDWGFPGGYLEYGETYKKAIMREFQEDTGLSVIPEKLIQNTDDTFYKYPNGDQIQSINQFFLVRYLEGTLLSVKTGETTRLKYFKLDQPPQFFNEQHAEMFKKIQRMRE”: “not soluble”.
The same measure for “MGSDKIHHHHHHMVKIMQYINKSKEEFLSEIYRIVAKIRLELELTTSEITISDFEFKMDSENSKNLILMIYTPTRTDKSLLIGPGGWVVGKLREKLNGSFKENLIIRVESYIDRKKELDAIENSISHLREKGLDISSKKDALVIIQCEYDLSSIDFINEYFNPIFITFDLGTALLPHKNRNRIEQVFKDKNLKYEFLSPYSLNGEQITDAISKNPCETICNNLISEMVNYAKNKNIEIVLFNHLNKDYEFRNGIHILNFLKMFPIKLNSLIHKGRSLDCPLLIQSCKRNKITKTFKIKQIVSGVYSGLVEPTEGAEEIIKYLK”: “not soluble”; for “MNYKSCFDIIGPIMIGPSSSHTAGALAIGLAARKLFGGTPEKIVIKYYESFADTHKGHGTDFAIIGGILGLAADDANVTQSIELAEEQGIEIQFLEMSEESPVKHANTACVTLSDATHEIHLTGISVGGGTIEVKYIELDGFNVQLHGPLPILLVINQEEQAMQAFKDTLQKNNIQVNAVSRYVEGNQILFIFDLDSAPISSVKEQLFSLDDTSKIILL”: “not soluble”; for “MQRKLNQSLLLAEAYFKRKFTMPEVNYELRGIKAGVAYLQKNEIKFNRTLLQENTDEFIRQVVPHELAHLIVYQMFGRVKPHGKEWQLVMNEIFKLPADTCHQFDIKNVQGKTFEYRCACQTHFLTIRRHNKIMKENIEYLCKKCRGKLVFVDDEELEHHHHHH”: “not soluble”.
Regarding “MAHHHHHHMNKFENFYKVPISYKNRKNEIYKYDNLEYNKMKYGMPEYYRCPYYMHENRNLYNTESCYTPNINVGRNSFYGKTLDPNDKICEENDSVYNILEEDHKEESFKKIECMNKEDDRKKIYNKVEKNDDENIDNKKHNYCEKYEEVYPKDRSSIKIIYNDVDQQIDHNLYDDENEIVCDNEIKKRKKRDRKVFMGKYFFSDIINTIIYPCTNKSLQKYQYGSVENMDYSLYNDIQKGQKIQKVDKIKNKKAPQIIVKF”, the “soluble on expression in E. coli” value was “not soluble”.
Regarding “MGSDKIHHHHHHMPLFTEAPKSLCILRLSAVGDVCHALAVVQHIQEYYPQTEMTWIVGKTEMGLLSSIPNITLIPYDKKTGWKGVLSLWKQLKNKQFDALLNMQTAFRASILSLGIKAKFKIGFGEKRSREGQWLFVNRRIRDPFSPHVLDGFMAFAEYIGVPKAEPKWELAISQDDYKFADQFIDFSRKNLLISPCSSKAEKDWLIEGYAEVANIAHQHNINVIFCSSPAKRELEIVEKITALCHFTPTNIAGKTNLKQLTALISKVDLVLSPDSGPAHIATTQGTPVIGLYAYHNPLRTAPYNNLDNVVSVYEENAQKEFGKPSSELPWATKLKGKNLMTEIQVEPVIGQMKKLGLF”, the “soluble on expression in E. coli” value is reported as “not soluble”.
Then “MSFYYSNIVSNQEKTFYDAQFSMSSLKQVSPISGSPQRDDSFNISPASSSPDMLVETWKSDEENAKSESPSSQSTTATSTNDDLFASVGTWEVHANENNITVNKKKKRSRKIRRLRDVQDSDEERPKPVIALVPLVPNPFCVSDSLLSKLGPVATKRRRVCFNPTISFHYYCVDK”, with “not soluble”; and “GSPEFMIGEEVPSDQYYWAPLAQHERGSLASLDSLRKGGPPPPNWRQPELPEVIAMLGFRLDAVKSNAAAYLQHLCYRNDKVKTDVRKLKGIPVLVGLLDHPKKEVHLGACGALKNISFGRDQDNKIAIKNCDGVPALVRLLRKARDMDLTEVITGTLWNLSSHDSIKMEIVDHALHALTDEVIIPHSGWEREPNEDCKPRHIEWESVLTNTAGCLRNVSSERSEARRKLRECDGLVDALIFIVQAEIGQKDSDSKLVENCVCLLRNLSYQVHREIPQAERYQEAAPNVANNTGTSPARGYELLFQPEVVRIYISLLKESKTPAILEASAGAIQNLCAGRWTYGRYIRSALRQEKALSAIADLLTNEHERVVKAASGALRNLAVDARNKELIGKHAIPNLVKNLPGGQQNSSWNFSEDTVISILNTINEVIAENLEAAKKLRETQGIEKLVLINKSGNRSEKEVRAAALVLQTIWGYKELRKPLEKEGWKKSDFQVNLNNASRSQSSHSYDDSTLPLIDRNQKSDKKPDREEIQMSNMGSNTKSLDNNYSTPNERGDHNRTLDRSGDLGDMEPLKGTTPLMQKI”, with “soluble”.
On to “MDTISDVQIHWRKKDYLSMSLLDDFGIAETTVKEHSVNDQIIVTLSADHRVRMIIRYEMDESHIPMIKNLVIRAFFIGSQ”, for which the “soluble on expression in E. coli” value was “soluble”.
